Experimental findings from patent US20190218277A1 (Chugai, published 2019) are described below.

Broadly, the EC50 (read off the curve) is the concentration that produces a half-maximal response. Low values mean higher potency in that assay, high ones lower potency in that assay.

Like-named read-outs stand apart in the source and are kept apart here.

For one experiment, the target named is T1, mouse FcγRI (mouse, UniProt P26151 25-297).
T1 construct: also called mFcγRI; mouse FcγR1
T1 sequence: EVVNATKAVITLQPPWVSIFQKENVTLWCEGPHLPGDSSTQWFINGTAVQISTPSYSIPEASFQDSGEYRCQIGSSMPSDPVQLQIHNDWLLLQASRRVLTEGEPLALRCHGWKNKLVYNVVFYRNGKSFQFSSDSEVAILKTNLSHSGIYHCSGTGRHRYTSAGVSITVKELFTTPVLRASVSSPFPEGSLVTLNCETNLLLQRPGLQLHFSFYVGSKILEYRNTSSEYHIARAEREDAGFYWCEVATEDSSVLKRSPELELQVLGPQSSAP
In words: SPR (Biacore T200, pH 7.4, 25 °C): His-tagged FcγR captured by anti-His antibody; antibody injected at 100 nM alone (Ab alone) or as 1:1 complex with trimeric CD154 (CD154 IC); binding level / capture level [A]. For orientation: SPR reads the build-up and loss of mass on a sensor chip optically.

In a further experiment the target is T2, mouse FcγRIV (mouse, UniProt A0A0B4J1G0 21-203).
T2 construct: also called mFcγRIV; mouse FcγR4
T2 sequence: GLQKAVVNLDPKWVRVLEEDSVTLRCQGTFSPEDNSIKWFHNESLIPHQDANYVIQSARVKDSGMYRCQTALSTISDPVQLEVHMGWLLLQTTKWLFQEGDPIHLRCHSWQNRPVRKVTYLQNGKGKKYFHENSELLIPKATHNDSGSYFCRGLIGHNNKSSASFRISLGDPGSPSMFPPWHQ
Briefly: SPR (Biacore T200, pH 7.4, 25 °C): His-tagged FcγR captured by anti-His antibody; antibody injected at 100 nM alone (Ab alone) or as 1:1 complex with trimeric CD154 (CD154 IC); binding level / capture level [D].

The target of the next experiment is T3, human FcγRIa (human, UniProt P12314 16-292).
T3 construct: also called human FcγR1a
Briefly: SPR (Biacore T200, pH 7.4, 25 °C): His-tagged FcγR captured by anti-His antibody; antibody injected at 100 nM alone (Ab alone) or as 1:1 complex with trimeric CD154 (CD154 IC); binding level / capture level [A].

The target in a further experiment is T4, human FcγRIIIb (NA1) (human, UniProt O75015 17-200).
T4 construct: also called human FcγR3b allelic variant NA1
T4 chain: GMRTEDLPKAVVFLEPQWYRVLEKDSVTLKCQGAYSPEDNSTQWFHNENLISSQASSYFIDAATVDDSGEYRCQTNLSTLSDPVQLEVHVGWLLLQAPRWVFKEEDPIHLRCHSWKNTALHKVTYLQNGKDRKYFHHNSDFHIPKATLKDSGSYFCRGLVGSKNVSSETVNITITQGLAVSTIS
In words: SPR (Biacore T200, pH 7.4, 25 °C): His-tagged FcγR captured by anti-His antibody; antibody injected at 100 nM alone (Ab alone) or as 1:1 complex with trimeric CD154 (CD154 IC); binding level / capture level [G].

For experiment [1], the target named is T5, human C1q (Calbiochem) (human, UniProt P02745 23-245; P02746 28-253; P02747 29-245). In words: ELISA: antibody coated on the plate at the concentration shown, human C1q added, detected with HRP anti-human C1q, OD 450 nm.
For a further experiment, the target named is T6, human FcγRIIIa (158V) (human, UniProt P08637 17-208).
T6 construct: also called human FcγR3a allelic variant 158V
Briefly: SPR (Biacore T200, pH 7.4, 25 °C): His-tagged FcγR captured by anti-His antibody; antibody injected at 100 nM alone (Ab alone) or as 1:1 complex with trimeric CD154 (CD154 IC); binding level / capture level [F].

Another experiment concerns the target T7, human FcγRIIIb (NA2) (human, UniProt O75015 17-200).
T7 construct: also called human FcγR3b allelic variant NA2
T7 chain: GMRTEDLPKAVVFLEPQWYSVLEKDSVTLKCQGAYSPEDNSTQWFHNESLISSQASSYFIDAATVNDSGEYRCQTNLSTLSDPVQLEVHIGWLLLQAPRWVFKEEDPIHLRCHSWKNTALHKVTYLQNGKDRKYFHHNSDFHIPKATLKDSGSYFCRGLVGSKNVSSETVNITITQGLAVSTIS
Briefly: SPR (Biacore T200, pH 7.4, 25 °C): His-tagged FcγR captured by anti-His antibody; antibody injected at 100 nM alone (Ab alone) or as 1:1 complex with trimeric CD154 (CD154 IC); binding level / capture level [H].

A further experiment addresses T8, mouse FcγRIII (mouse, UniProt P08508 31-215).
T8 construct: also called mFcγRIII; mouse FcγR3
T8 chain: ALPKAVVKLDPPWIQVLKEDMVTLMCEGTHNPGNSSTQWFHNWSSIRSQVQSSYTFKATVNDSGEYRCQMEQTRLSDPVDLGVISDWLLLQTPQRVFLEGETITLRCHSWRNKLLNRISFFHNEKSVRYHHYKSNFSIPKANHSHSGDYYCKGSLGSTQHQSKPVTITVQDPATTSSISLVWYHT
Briefly: SPR (Biacore T200, pH 7.4, 25 °C): His-tagged FcγR captured by anti-His antibody; antibody injected at 100 nM alone (Ab alone) or as 1:1 complex with trimeric CD154 (CD154 IC); binding level / capture level [C].

For a further experiment, the target named is T9, human FcγRIIb (human, UniProt P31994 43-217).
T9 construct: also called human FcγR2b
T9 sequence: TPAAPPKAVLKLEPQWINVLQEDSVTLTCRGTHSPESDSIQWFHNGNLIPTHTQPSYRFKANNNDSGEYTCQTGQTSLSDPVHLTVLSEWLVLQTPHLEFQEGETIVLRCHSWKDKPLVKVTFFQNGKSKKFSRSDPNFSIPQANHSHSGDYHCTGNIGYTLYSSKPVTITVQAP
Briefly: SPR (Biacore T200, pH 7.4, 25 °C): His-tagged FcγR captured by anti-His antibody; antibody injected at 100 nM alone (Ab alone) or as 1:1 complex with trimeric CD154 (CD154 IC); binding level / capture level [D].

The next experiment deals with T10, human FcγRIIIa (158F) (human, UniProt P08637 17-208).
T10 construct: also called human FcγR3a allelic variant 158F
In words: SPR (Biacore T200, pH 7.4, 25 °C): His-tagged FcγR captured by anti-His antibody; antibody injected at 100 nM alone (Ab alone) or as 1:1 complex with trimeric CD154 (CD154 IC); binding level / capture level [E].

For a further experiment, the target named is T11, mouse FcγRIIb (mouse, UniProt P08101 30-210).
T11 construct: also called mFcγRIIb; mouse FcγR2b
T11 sequence: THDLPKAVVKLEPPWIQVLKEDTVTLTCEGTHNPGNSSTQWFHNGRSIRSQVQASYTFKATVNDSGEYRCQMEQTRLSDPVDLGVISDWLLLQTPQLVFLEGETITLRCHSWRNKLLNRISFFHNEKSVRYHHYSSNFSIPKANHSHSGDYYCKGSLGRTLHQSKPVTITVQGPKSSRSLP
In words: SPR (Biacore T200, pH 7.4, 25 °C): His-tagged FcγR captured by anti-His antibody; antibody injected at 100 nM alone (Ab alone) or as 1:1 complex with trimeric CD154 (CD154 IC); binding level / capture level [B].

The target in experiment [2] is T5, human C1q (Calbiochem). Briefly: ELISA: antibody coated on the plate at the concentration shown, human C1q added, detected with HRP anti-human C1q, OD 450 nm. The source holds these as a separate data set.

T5 sequence (P02745 23-245 limits assumed, chain 1 of 3): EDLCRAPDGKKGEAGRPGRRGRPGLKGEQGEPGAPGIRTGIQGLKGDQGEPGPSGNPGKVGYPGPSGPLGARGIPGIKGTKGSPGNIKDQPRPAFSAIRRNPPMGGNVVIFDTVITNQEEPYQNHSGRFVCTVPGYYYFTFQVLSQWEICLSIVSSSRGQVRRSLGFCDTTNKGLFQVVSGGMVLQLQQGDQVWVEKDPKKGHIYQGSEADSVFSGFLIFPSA
T5 sequence (P02746 28-253 limits assumed, chain 2 of 3): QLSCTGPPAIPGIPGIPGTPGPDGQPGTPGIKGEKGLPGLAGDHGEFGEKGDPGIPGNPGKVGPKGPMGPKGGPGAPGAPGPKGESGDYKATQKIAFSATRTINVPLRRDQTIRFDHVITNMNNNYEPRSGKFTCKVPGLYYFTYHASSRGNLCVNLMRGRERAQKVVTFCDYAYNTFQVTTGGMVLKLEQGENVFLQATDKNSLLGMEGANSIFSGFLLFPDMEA
T5 sequence (P02747 29-245 limits assumed, chain 3 of 3): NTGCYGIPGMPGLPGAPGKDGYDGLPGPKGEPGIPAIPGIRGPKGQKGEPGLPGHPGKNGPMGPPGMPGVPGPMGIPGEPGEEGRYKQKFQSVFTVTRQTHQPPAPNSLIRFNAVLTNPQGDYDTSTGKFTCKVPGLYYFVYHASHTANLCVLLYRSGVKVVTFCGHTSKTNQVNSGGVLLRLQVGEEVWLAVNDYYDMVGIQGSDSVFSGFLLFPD
T3 sequence (P12314 16-292 limits assumed): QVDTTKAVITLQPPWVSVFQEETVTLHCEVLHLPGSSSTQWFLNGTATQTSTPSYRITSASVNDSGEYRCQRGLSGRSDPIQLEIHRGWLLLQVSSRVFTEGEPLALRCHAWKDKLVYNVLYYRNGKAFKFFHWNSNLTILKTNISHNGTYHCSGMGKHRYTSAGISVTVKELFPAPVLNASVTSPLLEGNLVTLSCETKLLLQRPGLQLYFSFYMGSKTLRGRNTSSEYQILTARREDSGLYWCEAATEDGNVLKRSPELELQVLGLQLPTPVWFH

B1: Anti-CD154 antibody (SLAPH0336a/SLAPL0336a) with Fc variant LALA+EFT (SG1090) (antibody, human IgG1, kappa, L234A L235A)
heavy: EVQLVESGGGSVKPGGSLKLSCAASGFTFSDHYMYWVRQTPEKRLEWVAIISGGGSYTSYPDSMKGRFTISRDNAKNILHLQMSSLKSEDTAMYYCTRESNGKPGFAYWGQGTLVTVSAASTKGPSVFPLAPSSKSTSGGTAALGCLVKDYFPEPVTVSWNSGALTSGVHTFPAVLQSSGLYSLSSVVTVPSSSLGTQTYICNVNHKPSNTKVDKRVEPKSCDKTHTCPPCPAPEAAGGPSVFLFPPKPKDTLMISRTPEVTCVVVDVEFEDPEVKFNWYVDGVEVHNAKTKPREEQYNSTYRVVSVLTVLHQDWLNGKEYKCKVTNKALPAPIEKTISKAKGQPREPQVYTLPPSREEMTKNQVSLTCLVKGFYPSDIAVEWESNGQPENNYKTTPPVLDSDGSFFLYSKLTVDKSRWQQGNVFSCSVMHEALHNHYTQKSLSLSP
light: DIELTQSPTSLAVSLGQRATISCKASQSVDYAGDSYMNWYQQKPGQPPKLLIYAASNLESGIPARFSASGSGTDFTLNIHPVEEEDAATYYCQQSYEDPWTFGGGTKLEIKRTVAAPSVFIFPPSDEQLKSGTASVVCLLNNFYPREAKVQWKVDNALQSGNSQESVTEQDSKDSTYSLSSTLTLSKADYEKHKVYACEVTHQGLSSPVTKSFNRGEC
Turning to B1, the binding result is recorded as “no binding (tested: 100 nM)” with mouse FcγRI; “no binding (tested: 100 nM)” in the experiment with mouse FcγRIV; “binds” with human FcγRIa; “no binding (tested: 100 nM)” with human FcγRIIIb (NA1); “binds” with human FcγRIIIa (158V); “no binding (tested: 100 nM)” in the experiment with human FcγRIIIb (NA2). Besides, the binding result in the experiment with mouse FcγRIII is given as “binds”; in the experiment with human FcγRIIb it was “binds”; with human FcγRIIIa (158F) it was “no binding (tested: 100 nM)”. Further, the “EC50 (read off the curve)” value in the experiment with human C1q (Calbiochem) [1] is roughly 2 mg/L.

B2: Anti-CD154 antibody (SLAPH0336a/SLAPL0336a) with Fc variant LALA+EFT+AE (SG1089) (antibody, human IgG1, kappa)
heavy: EVQLVESGGGSVKPGGSLKLSCAASGFTFSDHYMYWVRQTPEKRLEWVAIISGGGSYTSYPDSMKGRFTISRDNAKNILHLQMSSLKSEDTAMYYCTRESNGKPGFAYWGQGTLVTVSAASTKGPSVFPLAPSSKSTSGGTAALGCLVKDYFPEPVTVSWNSGALTSGVHTFPAVLQSSGLYSLSSVVTVPSSSLGTQTYICNVNHKPSNTKVDKRVEPKSCDKTHTCPPCPAPEAAAGPSVFLFPPKPKDTLMISRTPEVTCVVVDVEFEDPEVKFNWYVDGVEVHNAKTKPREEQYNSTYRVVSVLTVLHQDWLNGKEYKCKVTNKALPAPEEKTISKAKGQPREPQVYTLPPSREEMTKNQVSLTCLVKGFYPSDIAVEWESNGQPENNYKTTPPVLDSDGSFFLYSKLTVDKSRWQQGNVFSCSVMHEALHNHYTQKSLSLSP
light: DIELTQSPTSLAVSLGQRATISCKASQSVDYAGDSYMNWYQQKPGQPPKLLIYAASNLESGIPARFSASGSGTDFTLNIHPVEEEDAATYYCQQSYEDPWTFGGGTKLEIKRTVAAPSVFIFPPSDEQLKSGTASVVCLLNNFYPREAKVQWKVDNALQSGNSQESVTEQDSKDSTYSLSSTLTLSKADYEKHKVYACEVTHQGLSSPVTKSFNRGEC
Turning to B2, the binding result with mouse FcγRI is “no binding (tested: 100 nM)”; in the experiment with mouse FcγRIV, “binds”; with human FcγRIa, “binds”; with human FcγRIIIb (NA1) it was “no binding (tested: 100 nM)”; in the experiment with human FcγRIIIa (158V) it was “binds”; in the experiment with mouse FcγRIII it was “binds”. Moreover, the binding result in the experiment with human FcγRIIb is given as “binds”. Moreover, in the experiment with human C1q (Calbiochem) [1], the “EC50 (read off the curve)” value is roughly 3 mg/L.

B3: EFT+AE (antibody, human IgG1, kappa)
heavy chain: EVQLVESGGGSVKPGGSLKLSCAASGFTFSDHYMYWVRQTPEKRLEWVAIISGGGSYTSYPDSMKGRFTISRDNAKNILHLQMSSLKSEDTAMYYCTRESNGKPGFAYWGQGTLVTVSAASTKGPSVFPLAPSSKSTSGGTAALGCLVKDYFPEPVTVSWNSGALTSGVHTFPAVLQSSGLYSLSSVVTVPSSSLGTQTYICNVNHKPSNTKVDKRVEPKSCDKTHTCPPCPAPELLAGPSVFLFPPKPKDTLMISRTPEVTCVVVDVEFEDPEVKFNWYVDGVEVHNAKTKPREEQYNSTYRVVSVLTVLHQDWLNGKEYKCKVTNKALPAPEEKTISKAKGQPREPQVYTLPPSREEMTKNQVSLTCLVKGFYPSDIAVEWESNGQPENNYKTTPPVLDSDGSFFLYSKLTVDKSRWQQGNVFSCSVMHEALHNHYTQKSLSLSP
light chain: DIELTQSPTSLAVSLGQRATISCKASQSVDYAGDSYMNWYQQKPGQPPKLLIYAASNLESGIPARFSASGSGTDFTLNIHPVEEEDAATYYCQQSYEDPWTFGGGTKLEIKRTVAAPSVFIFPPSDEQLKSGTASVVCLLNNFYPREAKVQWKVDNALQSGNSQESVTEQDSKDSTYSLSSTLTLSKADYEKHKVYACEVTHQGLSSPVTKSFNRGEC
notes: also called Anti-CD154 antibody (SLAPH0336a/SLAPL0336a) with Fc variant EFT+AE (SG1086); SG1086
Consider B3, for which the binding result in the experiment with mouse FcγRI, with mouse FcγRIV, with human FcγRIa, with mouse FcγRIIb, in the experiment with human FcγRIIIa (158V) and with human FcγRIIIb (NA2) was “binds” throughout. In addition, the binding result in the experiment with mouse FcγRIII, with human FcγRIIb and in the experiment with human FcγRIIIa (158F) was “binds” in each case.

B4: Anti-CD154 antibody (SLAPH0336a/SLAPL0336a) with Fc variant LALA+KWES (SG1088) (antibody, human IgG1, kappa, L234A L235A)
heavy: EVQLVESGGGSVKPGGSLKLSCAASGFTFSDHYMYWVRQTPEKRLEWVAIISGGGSYTSYPDSMKGRFTISRDNAKNILHLQMSSLKSEDTAMYYCTRESNGKPGFAYWGQGTLVTVSAASTKGPSVFPLAPSSKSTSGGTAALGCLVKDYFPEPVTVSWNSGALTSGVHTFPAVLQSSGLYSLSSVVTVPSSSLGTQTYICNVNHKPSNTKVDKRVEPKSCDKTHTCPPCPAPEAAGGPSVFLFPPKPKDTLMISRTPEVTCVVVDVSHEDPEVKFNWYVDGVEVHNAKTKPREEQYNSTYRVVSVLTVLHQDWLNGKEYKCKVSNWALPAPISKTISKAKGQPREPQVYTLPPSREEMTKNQVSLTCLVKGFYPSDIAVEWESNGQPENNYKTTPPVLDSDGSFFLYSKLTVDKSRWQQGNVFSCSVMHEALHNHYTQKSLSLSP
light: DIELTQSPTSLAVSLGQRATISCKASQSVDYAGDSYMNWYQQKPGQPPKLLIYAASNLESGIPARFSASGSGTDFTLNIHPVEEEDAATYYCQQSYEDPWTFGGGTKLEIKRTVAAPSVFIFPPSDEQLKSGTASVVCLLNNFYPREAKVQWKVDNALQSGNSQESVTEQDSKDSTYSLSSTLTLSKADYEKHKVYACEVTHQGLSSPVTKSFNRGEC
In the case of B4, the binding result with human FcγRIa is “binds”. Besides, the “EC50 (read off the curve)” value with human C1q (Calbiochem) [1] was roughly 2 mg/L; with human C1q (Calbiochem) [2] it was roughly 3 mg/L.
